Literature values, collected in publication PMC8480781.

Key:
Glu66 = Glu66 (UniProt position 148, FTKKMEENAKK); test: stability; conditions: PHS V66E; state not stated
Lys66 = Lys66 (UniProt position 148, FTKKMKENAKK); test: potentiometry; conditions: PHS V66K; state not stated

Substance | pKa (Glu66) | pKa (Lys66)
Staphylococcal nuclease PHS V66E (Staphylococcus aureus; P117G;H124L;S128A;V66E) | 8.73–9.28 | 
Staphylococcal nuclease PHS V66K (Staphylococcus aureus; P117G;H124L;S128A;V66K) |  | 6.25–6.45
